The record followed here is article PMC5783997.

What is called stoichiometry N is the number of molecules, sites or subunits per partner or assembly.

The target in assay [1] is PucD LH2 α-apoprotein (α-polypeptide encoded by the pucBAd gene pair) (Rhodopseudomonas palustris (endogenous in the ΔpucBAabce mutant; genome sequence of strain CGA009)). In words: crystal structure; PucD LH2 in 20 mM Tris-Cl pH 8.0, 0.15% DM, 3.0% HPT, PEG 600, 50 mM CaCl2, 16 °C; data to 4.71 Å; molecular replacement with the nonameric Rps. acidophila 10050 LH2, jelly-body refinement.

The target of assay [2] is PucD LH2 β-apoprotein (β-polypeptide encoded by the pucBAd gene pair) (Rhodopseudomonas palustris (endogenous in the ΔpucBAabce mutant; genome sequence of strain CGA009)). Described as above.

In assay [1], “PucD LH2 α-apoprotein (α-polypeptide encoded by the pucBAd gene pair) (natural protein)” came in with a stoichiometry N of 9. “PucD LH2 β-apoprotein (β-polypeptide encoded by the pucBAd gene pair) (natural protein)” came in with a stoichiometry N in assay [2] of 9.
